Tests used:
Experiment in all cases: holdup assay
Design in all cases: key: below the threshold = too weak to quantify, mostly under pKd 3.1 to 4
DFNB31_2, Q9P202 = target: T1, DFNB31_2, Q9P202
T1 sequence (Q9P202 274-371, limits assumed, looked up): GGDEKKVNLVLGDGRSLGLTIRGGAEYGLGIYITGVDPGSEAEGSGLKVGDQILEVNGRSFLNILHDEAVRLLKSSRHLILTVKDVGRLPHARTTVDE

PARD3_3, Q8TEW0 = target: PARD3_3, Q8TEW0
GOPC, Q9HD26 = target: GOPC, Q9HD26
LAP2, Q96RT1 = target: LAP2, Q96RT1
GRASP, Q7Z6J2 = target: GRASP, Q7Z6J2
IL16_4, Q14005 = target: IL16_4, Q14005
MAGI3_2, Q5TCQ9 = target: MAGI3_2, Q5TCQ9
ARHGAP21, Q5T5U3 = target: T2, ARHGAP21, Q5T5U3
T2 sequence (Q5T5U3 45-169, limits assumed, looked up): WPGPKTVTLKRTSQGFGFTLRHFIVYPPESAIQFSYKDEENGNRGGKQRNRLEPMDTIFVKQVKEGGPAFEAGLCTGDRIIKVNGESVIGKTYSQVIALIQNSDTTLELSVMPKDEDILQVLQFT

DLG2_2, Q15700 = target: DLG2_2, Q15700
NHERF2_2, Q15599 = target: NHERF2_2, Q15599
Inadl_4, Q8NI35 = target: Inadl_4, Q8NI35
HTRA2, O43464 = target: HTRA2, O43464
PARD3B_1, Q8TEW8 = target: T3, PARD3B_1, Q8TEW8
T3 sequence (Q8TEW8 196-299, limits assumed, looked up): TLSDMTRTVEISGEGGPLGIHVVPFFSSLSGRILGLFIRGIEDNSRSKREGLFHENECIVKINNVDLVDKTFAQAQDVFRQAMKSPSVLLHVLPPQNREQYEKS

GRIP2_3, Q9C0E4 = target: GRIP2_3, Q9C0E4
GRIP1_2, Q9Y3R0 = target: T4, GRIP1_2, Q9Y3R0
T4 sequence (Q9Y3R0 145-248, limits assumed, looked up): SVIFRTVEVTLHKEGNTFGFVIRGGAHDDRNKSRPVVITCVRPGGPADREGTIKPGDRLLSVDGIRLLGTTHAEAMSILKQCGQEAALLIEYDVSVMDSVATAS

MAGI1_1, Q96QZ7 = target: MAGI1_1, Q96QZ7
FRMPD2_2, Q68DX3 = target: FRMPD2_2, Q68DX3
SNTB1, Q13884 = target: T5, SNTB1, Q13884
T5 sequence (Q13884 107-205, limits assumed, looked up): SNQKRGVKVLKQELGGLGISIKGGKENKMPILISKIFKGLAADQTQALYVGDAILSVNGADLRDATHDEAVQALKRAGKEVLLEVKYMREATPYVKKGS

DLG5_1, Q8TDM6 = target: DLG5_1, Q8TDM6
MAGI2_5, Q86UL8 = target: MAGI2_5, Q86UL8
Inadl_3, Q8NI35 = target: Inadl_3, Q8NI35
PDZRN3_1, Q9UPQ7 = target: T6, PDZRN3_1, Q9UPQ7
T6 sequence (Q9UPQ7 244-349, limits assumed, looked up): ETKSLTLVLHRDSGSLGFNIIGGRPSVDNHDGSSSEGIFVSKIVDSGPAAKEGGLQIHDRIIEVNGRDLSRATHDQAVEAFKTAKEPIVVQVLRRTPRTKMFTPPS

TX1BP3, O14907 = target: T7, TX1BP3, O14907
T7 sequence (O14907 10-122, limits assumed, looked up): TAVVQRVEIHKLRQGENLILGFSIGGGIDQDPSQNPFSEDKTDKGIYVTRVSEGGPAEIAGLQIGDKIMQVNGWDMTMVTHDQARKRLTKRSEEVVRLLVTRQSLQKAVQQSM

MPP2, Q14168 = target: T8, MPP2, Q14168
T8 sequence (Q14168 180-250, limits assumed, looked up): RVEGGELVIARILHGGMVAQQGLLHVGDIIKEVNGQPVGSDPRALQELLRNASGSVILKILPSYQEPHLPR

HTRA4, P83105 = target: T9, HTRA4, P83105
T9 sequence (P83105 378-476, limits assumed, looked up): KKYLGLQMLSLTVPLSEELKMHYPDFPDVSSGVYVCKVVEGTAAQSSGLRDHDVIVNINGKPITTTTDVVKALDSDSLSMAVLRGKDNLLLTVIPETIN

SHANK1, Q9Y566 = target: T10, SHANK1, Q9Y566
T10 sequence (Q9Y566 658-767, limits assumed, looked up): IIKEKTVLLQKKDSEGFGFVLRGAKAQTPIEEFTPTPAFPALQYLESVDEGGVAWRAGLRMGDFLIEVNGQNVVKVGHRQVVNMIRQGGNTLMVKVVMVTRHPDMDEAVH

[1] = plain residues with an end cap or a label only (N-terminal biotin on a linker: ado-ado)
[2] = plain residues with an end cap or a label only (N-terminal biotin on a linker: ahx)

Sequence of IL16_4, Q14005 (Q14005 1229-1329): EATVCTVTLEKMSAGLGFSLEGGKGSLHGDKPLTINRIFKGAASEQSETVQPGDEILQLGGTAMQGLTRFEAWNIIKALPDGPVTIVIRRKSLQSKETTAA
Sequence of GRIP2_3, Q9C0E4 (Q9C0E4 238-339): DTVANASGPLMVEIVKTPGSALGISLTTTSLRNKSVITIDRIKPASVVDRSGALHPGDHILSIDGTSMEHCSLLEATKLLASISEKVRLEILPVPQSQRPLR
Sequence of GRASP, Q7Z6J2 (Q7Z6J2 96-193): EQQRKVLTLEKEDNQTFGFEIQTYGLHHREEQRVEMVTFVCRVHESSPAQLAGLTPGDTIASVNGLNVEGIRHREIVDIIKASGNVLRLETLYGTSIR
Sequence of MAGI3_2, Q5TCQ9 (Q5TCQ9 398-503): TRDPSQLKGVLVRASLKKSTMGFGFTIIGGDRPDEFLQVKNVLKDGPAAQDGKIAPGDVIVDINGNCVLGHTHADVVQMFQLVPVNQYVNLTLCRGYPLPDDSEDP
Sequence of Inadl_4, Q8NI35 (Q8NI35 547-651): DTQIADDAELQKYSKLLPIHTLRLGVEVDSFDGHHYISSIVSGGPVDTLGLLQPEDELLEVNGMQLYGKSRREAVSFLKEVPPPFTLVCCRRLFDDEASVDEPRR
Sequence of PARD3_3, Q8TEW0 (Q8TEW0 582-685): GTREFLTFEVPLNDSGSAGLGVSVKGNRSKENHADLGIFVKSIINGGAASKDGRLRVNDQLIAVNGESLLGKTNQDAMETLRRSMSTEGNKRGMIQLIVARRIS
Sequence of NHERF2_2, Q15599 (Q15599 142-238): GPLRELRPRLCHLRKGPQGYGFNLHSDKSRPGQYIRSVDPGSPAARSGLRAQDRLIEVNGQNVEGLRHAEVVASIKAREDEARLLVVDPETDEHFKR
Sequence of LAP2, Q96RT1 (Q96RT1 other isoform, or with tags, fused parts or gaps): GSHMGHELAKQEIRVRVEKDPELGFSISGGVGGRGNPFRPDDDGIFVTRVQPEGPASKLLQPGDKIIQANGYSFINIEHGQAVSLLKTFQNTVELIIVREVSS
Sequence of MAGI1_1, Q96QZ7 (Q96QZ7 1-106): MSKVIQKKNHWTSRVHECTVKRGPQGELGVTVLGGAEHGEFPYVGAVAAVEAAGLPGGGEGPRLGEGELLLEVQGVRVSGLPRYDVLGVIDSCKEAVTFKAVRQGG
Sequence of MAGI2_5, Q86UL8 (Q86UL8 915-1017): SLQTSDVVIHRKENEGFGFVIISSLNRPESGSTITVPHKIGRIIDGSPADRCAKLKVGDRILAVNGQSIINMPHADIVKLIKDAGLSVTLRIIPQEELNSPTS
Sequence of Inadl_3, Q8NI35 (Q8NI35 359-469): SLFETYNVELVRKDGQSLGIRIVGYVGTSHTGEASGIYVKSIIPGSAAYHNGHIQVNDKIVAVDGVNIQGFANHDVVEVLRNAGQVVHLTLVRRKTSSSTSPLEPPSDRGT
Sequence of FRMPD2_2, Q68DX3 (Q68DX3 944-1038): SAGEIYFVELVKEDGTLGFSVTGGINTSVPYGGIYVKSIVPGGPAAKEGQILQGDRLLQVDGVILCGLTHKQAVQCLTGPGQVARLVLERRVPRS
Sequence of DLG5_1, Q8TDM6 (Q8TDM6 617-713): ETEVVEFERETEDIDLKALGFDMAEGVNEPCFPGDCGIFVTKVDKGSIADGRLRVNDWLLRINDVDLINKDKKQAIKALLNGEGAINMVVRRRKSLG
Sequence of DLG2_2, Q15700 (Q15700 189-283): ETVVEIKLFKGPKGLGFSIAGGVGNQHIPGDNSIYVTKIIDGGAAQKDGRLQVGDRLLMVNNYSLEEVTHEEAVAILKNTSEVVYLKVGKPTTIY
Sequence of HTRA2, O43464 (O43464 355-458): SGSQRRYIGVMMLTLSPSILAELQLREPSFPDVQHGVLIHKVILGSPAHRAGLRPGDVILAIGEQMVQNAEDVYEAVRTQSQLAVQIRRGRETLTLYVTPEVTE

## GTGYDRKDYV [CLDN3, O15551]
DFNB31_2, Q9P202; [1]
  pKd: below the threshold
PARD3_3, Q8TEW0; [1]
  pKd: 3.52
GOPC, Q9HD26; [1]
  pKd: below the threshold
LAP2, Q96RT1; [1]
  pKd: below the threshold
GRASP, Q7Z6J2; [1]
  pKd: below the threshold
IL16_4, Q14005; [1]
  pKd: 3.73
MAGI3_2, Q5TCQ9; [1]
  pKd: below the threshold
ARHGAP21, Q5T5U3; [1]
  pKd: 3.83
DLG2_2, Q15700; [1]
  pKd: below the threshold
NHERF2_2, Q15599; [1]
  pKd: 3.6
Inadl_4, Q8NI35; [1]
  pKd: below the threshold
HTRA2, O43464; [1]
  pKd: below the threshold
PARD3B_1, Q8TEW8; [1]
  pKd: 3.51
GRIP2_3, Q9C0E4; [1]
  pKd: below the threshold
GRIP1_2, Q9Y3R0; [1]
  pKd: below the threshold
MAGI1_1, Q96QZ7; [1]
  pKd: below the threshold
FRMPD2_2, Q68DX3; [1]
  pKd: below the threshold
SNTB1, Q13884; [1]
  pKd: below the threshold
DLG5_1, Q8TDM6; [1]
  pKd: 3.59
MAGI2_5, Q86UL8; [1]
  pKd: below the threshold
Inadl_3, Q8NI35; [1]
  pKd: below the threshold
PDZRN3_1, Q9UPQ7; [1]
  pKd: below the threshold
TX1BP3, O14907; [1]
  pKd: below the threshold
MPP2, Q14168; [1]
  pKd: below the threshold
HTRA4, P83105; [1]
  pKd: below the threshold
SHANK1, Q9Y566; [1]
  pKd: below the threshold

## DGVNEKVSCV [HTR2A, P28223]
DFNB31_2, Q9P202; [1]
  pKd: below the threshold
PARD3_3, Q8TEW0; [1]
  pKd: below the threshold
GOPC, Q9HD26; [1]
  pKd: below the threshold
LAP2, Q96RT1; [1]
  pKd: below the threshold
GRASP, Q7Z6J2; [1]
  pKd: 4.21
IL16_4, Q14005; [1]
  pKd: 3.56
MAGI3_2, Q5TCQ9; [1]
  pKd: 4.47
ARHGAP21, Q5T5U3; [1]
  pKd: below the threshold
DLG2_2, Q15700; [1]
  pKd: 4.56
NHERF2_2, Q15599; [1]
  pKd: below the threshold
Inadl_4, Q8NI35; [1]
  pKd: below the threshold
HTRA2, O43464; [1]
  pKd: below the threshold
PARD3B_1, Q8TEW8; [1]
  pKd: below the threshold
GRIP2_3, Q9C0E4; [1]
  pKd: below the threshold
GRIP1_2, Q9Y3R0; [1]
  pKd: below the threshold
MAGI1_1, Q96QZ7; [1]
  pKd: below the threshold
FRMPD2_2, Q68DX3; [1]
  pKd: 4.65
SNTB1, Q13884; [1]
  pKd: 4.72
DLG5_1, Q8TDM6; [1]
  pKd: below the threshold
MAGI2_5, Q86UL8; [1]
  pKd: 4.78
Inadl_3, Q8NI35; [1]
  pKd: below the threshold
PDZRN3_1, Q9UPQ7; [1]
  pKd: below the threshold
TX1BP3, O14907; [1]
  pKd: 3.61
MPP2, Q14168; [1]
  pKd: below the threshold
HTRA4, P83105; [1]
  pKd: 3.71
SHANK1, Q9Y566; [1]
  pKd: below the threshold

## TESNLQTSSC [CGN, Q9P2M7]
DFNB31_2, Q9P202; [2]
  pKd: below the threshold
PARD3_3, Q8TEW0; [2]
  pKd: below the threshold
GOPC, Q9HD26; [2]
  pKd: below the threshold
LAP2, Q96RT1; [2]
  pKd: below the threshold
GRASP, Q7Z6J2; [2]
  pKd: 3.95
IL16_4, Q14005; [2]
  pKd: below the threshold
MAGI3_2, Q5TCQ9; [2]
  pKd: below the threshold
ARHGAP21, Q5T5U3; [2]
  pKd: 3.51
DLG2_2, Q15700; [2]
  pKd: below the threshold
NHERF2_2, Q15599; [2]
  pKd: below the threshold
Inadl_4, Q8NI35; [2]
  pKd: below the threshold
HTRA2, O43464; [2]
  pKd: below the threshold
PARD3B_1, Q8TEW8; [2]
  pKd: below the threshold
GRIP2_3, Q9C0E4; [2]
  pKd: below the threshold
GRIP1_2, Q9Y3R0; [2]
  pKd: below the threshold
MAGI1_1, Q96QZ7; [2]
  pKd: below the threshold
FRMPD2_2, Q68DX3; [2]
  pKd: below the threshold
SNTB1, Q13884; [2]
  pKd: below the threshold
DLG5_1, Q8TDM6; [2]
  pKd: below the threshold
MAGI2_5, Q86UL8; [2]
  pKd: below the threshold
Inadl_3, Q8NI35; [2]
  pKd: 3.64
PDZRN3_1, Q9UPQ7; [2]
  pKd: below the threshold
TX1BP3, O14907; [2]
  pKd: below the threshold
MPP2, Q14168; [2]
  pKd: below the threshold
HTRA4, P83105; [2]
  pKd: below the threshold
SHANK1, Q9Y566; [2]
  pKd: below the threshold

## APSRKLNTEI [TIAM1, Q13009]
DFNB31_2, Q9P202; [2]
  pKd: below the threshold
PARD3_3, Q8TEW0; [2]
  pKd: below the threshold
GOPC, Q9HD26; [2]
  pKd: below the threshold
LAP2, Q96RT1; [2]
  pKd: below the threshold
GRASP, Q7Z6J2; [2]
  pKd: below the threshold
IL16_4, Q14005; [2]
  pKd: below the threshold
MAGI3_2, Q5TCQ9; [2]
  pKd: below the threshold
ARHGAP21, Q5T5U3; [2]
  pKd: below the threshold
DLG2_2, Q15700; [2]
  pKd: below the threshold
NHERF2_2, Q15599; [2]
  pKd: below the threshold
Inadl_4, Q8NI35; [2]
  pKd: below the threshold
HTRA2, O43464; [2]
  pKd: below the threshold
PARD3B_1, Q8TEW8; [2]
  pKd: below the threshold
GRIP2_3, Q9C0E4; [2]
  pKd: below the threshold
GRIP1_2, Q9Y3R0; [2]
  pKd: below the threshold
MAGI1_1, Q96QZ7; [2]
  pKd: below the threshold
FRMPD2_2, Q68DX3; [2]
  pKd: below the threshold
SNTB1, Q13884; [2]
  pKd: below the threshold
DLG5_1, Q8TDM6; [2]
  pKd: below the threshold
MAGI2_5, Q86UL8; [2]
  pKd: below the threshold
Inadl_3, Q8NI35; [2]
  pKd: below the threshold
PDZRN3_1, Q9UPQ7; [2]
  pKd: below the threshold
TX1BP3, O14907; [2]
  pKd: below the threshold
MPP2, Q14168; [2]
  pKd: below the threshold
HTRA4, P83105; [2]
  pKd: below the threshold
SHANK1, Q9Y566; [2]
  pKd: below the threshold

## RSSGGDDFWF [KCNV1, Q6PIU1]
DFNB31_2, Q9P202; [1]
  pKd: below the threshold
PARD3_3, Q8TEW0; [1]
  pKd: 4.97
GOPC, Q9HD26; [1]
  pKd: below the threshold
LAP2, Q96RT1; [1]
  pKd: below the threshold
GRASP, Q7Z6J2; [1]
  pKd: below the threshold
IL16_4, Q14005; [1]
  pKd: below the threshold
MAGI3_2, Q5TCQ9; [1]
  pKd: below the threshold
ARHGAP21, Q5T5U3; [1]
  pKd: 4.8
DLG2_2, Q15700; [1]
  pKd: below the threshold
NHERF2_2, Q15599; [1]
  pKd: 4.69
Inadl_4, Q8NI35; [1]
  pKd: below the threshold
HTRA2, O43464; [1]
  pKd: below the threshold
PARD3B_1, Q8TEW8; [1]
  pKd: 4.48
GRIP2_3, Q9C0E4; [1]
  pKd: below the threshold
GRIP1_2, Q9Y3R0; [1]
  pKd: below the threshold
MAGI1_1, Q96QZ7; [1]
  pKd: below the threshold
FRMPD2_2, Q68DX3; [1]
  pKd: below the threshold
SNTB1, Q13884; [1]
  pKd: below the threshold
DLG5_1, Q8TDM6; [1]
  pKd: below the threshold
MAGI2_5, Q86UL8; [1]
  pKd: below the threshold
Inadl_3, Q8NI35; [1]
  pKd: 3.59
PDZRN3_1, Q9UPQ7; [1]
  pKd: below the threshold
TX1BP3, O14907; [1]
  pKd: below the threshold
MPP2, Q14168; [1]
  pKd: below the threshold
HTRA4, P83105; [1]
  pKd: below the threshold
SHANK1, Q9Y566; [1]
  pKd: below the threshold

Source: article PMC9482650, “Quantitative fragmentomics allow affinity mapping of interactomes” (Nature Communications, 2022)
